Measurements from patent US20220089730A1 (IMAGINAB, published 2022).

Assays:
[1] = target: T1, PSMA (Prostate-Specific Membrane Antigen), glutamate carboxypeptidase 2 (Homo sapiens, UniProt Q04609 1-750); test: flow cytometry (FACS) on C4-2 XCL cells
T1 construct: also called FOLH1; target antigen expressed on LNCaP-AR cells

[2] = target: T1, PSMA (Prostate-Specific Membrane …); test: flow cytometry (FACS) on LNCaP-AR cells and on C4-2 XCL cells

T1 sequence (Q04609 whole entry): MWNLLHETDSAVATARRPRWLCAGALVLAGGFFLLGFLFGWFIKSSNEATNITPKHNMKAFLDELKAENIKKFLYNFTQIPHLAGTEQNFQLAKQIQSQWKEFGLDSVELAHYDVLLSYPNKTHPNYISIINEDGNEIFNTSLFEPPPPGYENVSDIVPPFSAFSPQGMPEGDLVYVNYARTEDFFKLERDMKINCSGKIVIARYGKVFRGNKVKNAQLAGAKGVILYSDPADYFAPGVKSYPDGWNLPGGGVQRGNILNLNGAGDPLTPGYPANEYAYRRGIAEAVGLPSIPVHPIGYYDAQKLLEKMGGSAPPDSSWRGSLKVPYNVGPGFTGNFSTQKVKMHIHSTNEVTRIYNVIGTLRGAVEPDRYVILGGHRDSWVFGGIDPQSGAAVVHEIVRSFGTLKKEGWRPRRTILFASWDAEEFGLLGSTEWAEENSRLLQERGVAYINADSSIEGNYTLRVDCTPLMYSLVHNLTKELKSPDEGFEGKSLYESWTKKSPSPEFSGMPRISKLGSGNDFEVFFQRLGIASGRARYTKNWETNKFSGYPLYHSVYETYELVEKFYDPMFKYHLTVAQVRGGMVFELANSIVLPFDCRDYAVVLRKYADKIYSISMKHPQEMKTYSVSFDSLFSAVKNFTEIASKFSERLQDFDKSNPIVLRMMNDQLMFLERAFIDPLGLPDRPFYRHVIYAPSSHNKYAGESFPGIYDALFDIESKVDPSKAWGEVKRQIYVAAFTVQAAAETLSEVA

B1: IAB2M γ2 EH1 (other)
chain: DIVMTQSPSSLSASVGDRVTITCKASQDVGTAVDWYQQKPGKAPKLLIYWASTRHTGVPDRFTGSGSGTDFTLTISSLQPEDFADYFCQQYNSYPLTFGGGTKLEIKGSTSGGGSGGGSGGGGSSEVQLVQSGAEVKKPGASVKISCKTSGYTFTEYTIHWVKQASGKGLEWIGNINPNNGGTTYNQKFEDRATLTVDKSTSTAYMELSSLRSEDTAVYYCAAGWNFDYWGQGTTVTVSSERKCCVECPPCPGGGSSGGGSGGQPREPQVYTLPPSREEMTKNQVSLTCLVKGFYPSDIAVEWESNGQPENNYKTTPPMLDSDGSFFLYSKLTVDKSRWQQGNVFSCSVMHEALHNHYTQKSLSLSPGK
notes: Anti-PSMA minibody: homodimer of scFv-hinge-CH3
Question: Does B1 bind [1]?
Answer: binds

B2: IAB2M γ1 EH1 (other)
chain: DIVMTQSPSSLSASVGDRVTITCKASQDVGTAVDWYQQKPGKAPKLLIYWASTRHTGVPDRFTGSGSGTDFTLTISSLQPEDFADYFCQQYNSYPLTFGGGTKLEIKGSTSGGGSGGGSGGGGSSEVQLVQSGAEVKKPGASVKISCKTSGYTFTEYTIHWVKQASGKGLEWIGNINPNNGGTTYNQKFEDRATLTVDKSTSTAYMELSSLRSEDTAVYYCAAGWNFDYWGQGTTVTVSSEPKSCDKTHTCPPCGGGSSGGGSGGQPREPQVYTLPPSRDELTKNQVSLTCLVKGFYPSDIAVEWESNGQPENNYKTTPPVLDSDGSFFLYSKLTVDKSRWQQGNVFSCSVMHEALHNHYTQKSLSLSPGK
notes: as for B1
Question: Does B2 bind [2]?
Answer: binds

B3: IAB2M γ1 EH2 (other)
chain: DIVMTQSPSSLSASVGDRVTITCKASQDVGTAVDWYQQKPGKAPKLLIYWASTRHTGVPDRFTGSGSGTDFTLTISSLQPEDFADYFCQQYNSYPLTFGGGTKLEIKGSTSGGGSGGGSGGGGSSEVQLVQSGAEVKKPGASVKISCKTSGYTFTEYTIHWVKQASGKGLEWIGNINPNNGGTTYNQKFEDRATLTVDKSTSTAYMELSSLRSEDTAVYYCAAGWNFDYWGQGTTVTVSSEPKSSDKTHTCPPCGGGSSGGGSGGQPREPQVYTLPPSRDELTKNQVSLTCLVKGFYPSDIAVEWESNGQPENNYKTTPPVLDSDGSFFLYSKLTVDKSRWQQGNVFSCSVMHEALHNHYTQKSLSLSPGK
notes: as for B1
Question: Does B3 bind [2]?
Answer: binds
